Results taken from paper PMC4072508, “Genome-Wide Prediction and Validation of Peptides That Bind Human Prosurvival Bcl-2 Proteins” (PLoS Computational Biology, 2014).

Assays:
Assay in all cases: peptide SPOT array, c-Myc-tagged receptor at 1 uM or 100 nM, anti-c-Myc-Cy3
Bcl-xL, Q07817 = biological target: Bcl-xL, Q07817
Bfl-1, Q16548 = biological target: T1, Bfl-1, Q16548
T1 chain: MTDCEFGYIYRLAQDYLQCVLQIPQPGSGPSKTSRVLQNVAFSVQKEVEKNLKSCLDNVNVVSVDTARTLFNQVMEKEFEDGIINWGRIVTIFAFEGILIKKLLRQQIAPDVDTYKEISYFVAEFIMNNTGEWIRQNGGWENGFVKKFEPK

Mcl-1, Q07820 = biological target: T2, Mcl-1, Q07820
T2 chain: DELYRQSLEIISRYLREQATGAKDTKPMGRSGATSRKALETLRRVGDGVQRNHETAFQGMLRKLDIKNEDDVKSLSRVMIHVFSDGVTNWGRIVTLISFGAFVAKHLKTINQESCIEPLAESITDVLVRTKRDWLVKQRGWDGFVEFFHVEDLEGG

Sequence of Bcl-xL, Q07817 (Q07817 1-209): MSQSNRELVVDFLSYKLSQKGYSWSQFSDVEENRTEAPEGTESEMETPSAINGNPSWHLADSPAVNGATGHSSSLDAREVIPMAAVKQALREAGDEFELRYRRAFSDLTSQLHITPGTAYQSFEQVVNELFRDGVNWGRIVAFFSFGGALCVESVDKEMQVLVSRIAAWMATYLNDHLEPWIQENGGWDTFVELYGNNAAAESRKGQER

SPOT signal as a fraction of Bim BH3's signal on the same receptor and array (Bcl-xL, Q07817)	SPOT signal as a fraction of Bim BH3's signal on the same receptor and array (Bfl-1, Q16548)	SPOT signal as a fraction of Bim BH3's signal on the same receptor and array (Mcl-1, Q07820)	Binder
0.06	0.03	0.05	LSIIYTLVEIFQNILDTNLADFTAGL [SLC26A4]
0.09	0.09	0.06	SFLSAHCASHLAWFGDSLTSLSQRLQ [TMEM214]
0.86	0.57	0.63	TAGLRPGARLLRVCLQTLPSLRPEAA [SIPA1]
0.15	0.1	0.1	MPYMEAVIHEIQRFGDVIPMSLARRV [CYP2A6]
0.05	0.05	0.05	LNLLMISVAFLRVIGDQLEKLCDSLL [SLC38A8]
0.17	0.09	0.21	VHKHSRLAEVLQLGSDILPQYKQEAP [KCNH1]
0.07	0.04	0.06	CHGLRELALNYHLLLDELLLALSSEK [FBXL3]
0.05	0.04	0.04	VLELHPGAQRDHIGCDEVYYLGEGEA [HEXDC]
0.09	0.03	0.04	SEIMHSFAKCDEVMGDGCLNNEHFEE
0.49	0.42	0.41	LWAAQRYGRELRRMLDEFVDSFKKGL [BAD]
0.36	0.08	0.05	VLAPVQLGKWLVLFCDEINLPDMDKY [DYNC1H1]
0.08	0.05	0.06	SWFIQSLCAMDKQYADKLEFMHILTR [CASP3]
0.11	0.06	0.09	LLDFFMVSILFSKLGDLLHKLQFVLT [PCNXL2]
0.67	0.53	0.52	PYLSKHRADRMRRLLDFLNQESFDLA [SMPD2]
0.06	0.04	0.05	MSLFLRVVFSDTMFGDLFEEEYSTVS [USP40]
0.1	0.04	0.06	SEIMHSFAKCIEVMLDGCLNNEHFEE

SPOT signal as a fraction of Bim BH3's signal on the same receptor and array (Bcl-xL, Q07817)	SPOT signal as a fraction of Bim BH3's signal on the same receptor and array (Bfl-1, Q16548)	SPOT signal as a fraction of Bim BH3's signal on the same receptor and array (Mcl-1, Q07820)	Binder
0.06	0.04	0.03	SQEPLEKAQLDALVGDQLIQSHHYAA [MCF2L2]
0.06	0.08	0.05	LFWTPLLVVLLAGLLDTEAQQTTLHP [SGCA]
0.91	0.86	0.72	CGEWTRRSLHDRVLGRQLILPTDKGV [FAM149A]
0.06	0.04	0.05	MSILTIASAVLEFVGDGIYNNTMGHV [TAP1]
0.2	0.13	0.16	AIILCNVCGNDCTDCDRFLHLHRRTK [MYCBP2]
0.05	0.06	0.03	NNNMDVESRTDATMGDTLASRGLLDA [SEC16A]
2.76	1.47	1.35	GTAVAYRGAHDRGRGRAVYNTFRAAP
0.1	0.07	0.12	LALMMQLARELKTLARDLGMAVVVTN [RAD51L3]
0.86	0.49	0.53	AEVMRQRGINDRYLGKVLELVLRSPA [KIAA0664]
2.64	1.71	1.37	TAAAAYRGAHLRGRGRTVYNTFRAAA
0.1	0.06	0.08	AFGLGDLPNLLGLVGDQLGDTERKRR [ADAMTS14]
0.35	0.23	0.25	YIVLGLRKTTLQKVLKEVAELVGRVG [NLRX1]
0.41	0.19	0.19	ERLKGQLCDVLLIVLDQKFRAHKNVL [ZNF295]
0.75	0.54	0.54	LALLAQPSHLMRQVLRSVFGHICSHL [MYBBP1A]
1.16	0.52	0.75	RVCPYYLSRNLKQQLDIIFMPYNYLL [RTEL1]
0.16	0.11	0.08	TETKATFGVHLKIVGDWTERFRDLLL [NOX4]
